Measured values as given in patent US7176279 (PALATIN TECHNOLOGIES, dated 2007).

Experiments:
[1] = molecular target: T1, hMC4-R (human, UniProt P32245 1-332); assay: titrated competitive binding assay on receptor membranes
T1 construct: whole, on cells; cAMP assay on whole transfected HEK-293 cells; also called MC4 receptor; melanocortin-4 receptor

[2] = molecular target: T2, hMC3-R (human, UniProt P41968 1-323); assay: as above
T2 construct: whole, on cells; Assayed as membranes prepared from transfected HEK 293 cells; also called MC3 receptor; melanocortin-3 receptor

[3] = molecular target: T3, hMC5-R (human, UniProt P33032 1-325); assay: as above
T3 construct: whole, on cells; Assayed as membranes prepared from transfected HEK 293 cells; also called MC5 receptor; melanocortin-5 receptor

[4] = molecular target: T4, MC1-R (B16-F1 mouse melanoma cells) (mouse, UniProt Q01727 1-315); assay: as above
T4 construct: whole, on cells; Assayed as membranes prepared from B16-F1 mouse melanoma cells; also called MC1 receptor; melanocortin-1 receptor

[5] = molecular target: T1, hMC4-R; assay: competition with 125I-NDP-MSH, HEK 293 hMC4-R membranes, 1 µM peptide
[6] = molecular target: T4, MC1-R (B16-F1 mouse melanoma cells); assay: competition with 125I-NDP-MSH, B16-F1 membranes, 1 µM peptide
[7] = molecular target: T2, hMC3-R; assay: competition with 125I-NDP-MSH, HEK 293 hMC3-R membranes, 1 µM peptide
[8] = molecular target: T3, hMC5-R; assay: competition with 125I-NDP-MSH, HEK 293 hMC5-R membranes, 1 µM peptide

T1 sequence (P32245 whole entry): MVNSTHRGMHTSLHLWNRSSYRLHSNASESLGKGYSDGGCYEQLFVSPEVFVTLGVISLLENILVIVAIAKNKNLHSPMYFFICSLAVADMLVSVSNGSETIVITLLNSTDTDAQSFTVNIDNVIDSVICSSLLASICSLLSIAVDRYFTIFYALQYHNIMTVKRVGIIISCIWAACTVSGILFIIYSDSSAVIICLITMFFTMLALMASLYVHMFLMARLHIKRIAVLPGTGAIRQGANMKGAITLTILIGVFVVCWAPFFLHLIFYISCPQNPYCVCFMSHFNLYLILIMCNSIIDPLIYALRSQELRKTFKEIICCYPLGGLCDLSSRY
T4 sequence (Q01727 whole entry): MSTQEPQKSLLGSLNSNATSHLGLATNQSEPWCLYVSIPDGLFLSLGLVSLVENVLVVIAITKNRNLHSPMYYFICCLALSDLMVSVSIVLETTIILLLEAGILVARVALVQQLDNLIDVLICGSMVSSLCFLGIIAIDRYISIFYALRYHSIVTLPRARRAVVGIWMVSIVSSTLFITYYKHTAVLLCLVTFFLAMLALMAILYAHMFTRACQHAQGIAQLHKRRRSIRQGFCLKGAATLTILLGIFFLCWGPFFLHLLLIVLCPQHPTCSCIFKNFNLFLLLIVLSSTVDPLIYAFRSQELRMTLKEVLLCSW
T2 sequence (P41968 whole entry): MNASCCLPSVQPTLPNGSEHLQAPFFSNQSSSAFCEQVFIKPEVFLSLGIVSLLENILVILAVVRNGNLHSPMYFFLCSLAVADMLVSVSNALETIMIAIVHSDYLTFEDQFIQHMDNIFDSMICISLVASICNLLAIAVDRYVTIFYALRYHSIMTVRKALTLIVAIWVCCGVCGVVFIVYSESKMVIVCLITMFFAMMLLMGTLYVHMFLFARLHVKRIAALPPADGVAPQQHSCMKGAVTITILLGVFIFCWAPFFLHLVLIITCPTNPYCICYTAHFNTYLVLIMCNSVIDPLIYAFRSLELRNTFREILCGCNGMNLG
T3 sequence (P33032 whole entry): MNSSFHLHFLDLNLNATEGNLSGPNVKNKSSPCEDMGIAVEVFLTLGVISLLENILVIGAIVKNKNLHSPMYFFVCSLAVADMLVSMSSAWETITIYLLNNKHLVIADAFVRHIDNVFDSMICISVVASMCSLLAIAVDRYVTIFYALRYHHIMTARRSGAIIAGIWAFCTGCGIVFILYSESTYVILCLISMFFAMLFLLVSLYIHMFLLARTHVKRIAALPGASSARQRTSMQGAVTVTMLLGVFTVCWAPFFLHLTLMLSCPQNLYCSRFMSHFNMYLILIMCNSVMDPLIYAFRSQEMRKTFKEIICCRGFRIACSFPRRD

B1: Ac-Nle-cyclo(-Asp-His-D-Phe-Lys-Trp-Lys)-OH (peptide)
peptide: XDHFKWK
modifications: N-terminal acetyl; Nle at 1 (X); D-Phe at 4; cyclo (lactam) between side chains of Asp 2 and Lys 7; C-terminal free acid (-OH)
notes: Synthetic cyclic heptapeptide; X = norleucine; also called Ac-Nle-cyclo( -Asp-His-D-Phe-Lys-Trp-Lsy)-OH
Work on B1 yielded a Ki [1] of 742 µM, a Ki [2] of 10.8 µM and a Ki [3] of 2.53 µM. The Ki [4] was 0.0099 µM, the “Percent Inhibition At 1 µM concentration” value [5] was 46% and the “Percent Inhibition At 1 µM concentration” value [6] was 86%. The “Percent Inhibition At 1 µM concentration” value [7] was 8% and the “Percent Inhibition At 1 µM concentration” value [8] was 17%.
